Source: patent publication US20040180823A1 (BURNHAM INSTITUTE, published 2004)
Ends that are not written are not given here.

Tests used:
[1] = target: T1, EphB4 Fc fusion protein; test: immobilized peptide capturing Eph receptor Fc (methods of Example 2)
T1 construct: Eph receptor Fc fusion
Excerpt: Bound Eph receptors were detected with anti-human Fc antibody conjugated to alkaline phosphatase (AP) (Promega, Madison, Wis.). […] Substrates were 2,2′-azino-bis(3-ethylbenzthiazoline-6-sulfonic acid) for horseradish peroxidase and p-nitrophenyl phosphate for AP.

[2] = target: T2, histidine-tagged mouse EphA2 Fc fusion protein (R&D Systems) (mouse, UniProt Q03145 26-535, limits assumed); test: SPR (BIAcore 3000), EphA2 Fc coupled to chip, equilibrium binding
T2 construct: Bought; not shown: Fc portion and histidine tag
T2 sequence (Q03145 26-535 limits assumed): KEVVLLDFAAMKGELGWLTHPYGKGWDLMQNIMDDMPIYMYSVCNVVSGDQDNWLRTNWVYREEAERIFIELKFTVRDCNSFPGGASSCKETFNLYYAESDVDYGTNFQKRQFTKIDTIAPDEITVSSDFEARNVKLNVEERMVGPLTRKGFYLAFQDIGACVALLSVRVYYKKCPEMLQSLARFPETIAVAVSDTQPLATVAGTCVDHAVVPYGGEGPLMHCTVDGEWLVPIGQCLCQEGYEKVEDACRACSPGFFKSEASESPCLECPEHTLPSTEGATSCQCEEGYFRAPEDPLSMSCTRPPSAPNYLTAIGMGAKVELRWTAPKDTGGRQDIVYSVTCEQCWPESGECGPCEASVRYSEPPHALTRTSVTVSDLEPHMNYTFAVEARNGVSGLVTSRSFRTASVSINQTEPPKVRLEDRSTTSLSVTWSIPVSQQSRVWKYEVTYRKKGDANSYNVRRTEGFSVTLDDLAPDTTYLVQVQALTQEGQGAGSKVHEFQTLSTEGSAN

T1 sequence (P54761 16-539): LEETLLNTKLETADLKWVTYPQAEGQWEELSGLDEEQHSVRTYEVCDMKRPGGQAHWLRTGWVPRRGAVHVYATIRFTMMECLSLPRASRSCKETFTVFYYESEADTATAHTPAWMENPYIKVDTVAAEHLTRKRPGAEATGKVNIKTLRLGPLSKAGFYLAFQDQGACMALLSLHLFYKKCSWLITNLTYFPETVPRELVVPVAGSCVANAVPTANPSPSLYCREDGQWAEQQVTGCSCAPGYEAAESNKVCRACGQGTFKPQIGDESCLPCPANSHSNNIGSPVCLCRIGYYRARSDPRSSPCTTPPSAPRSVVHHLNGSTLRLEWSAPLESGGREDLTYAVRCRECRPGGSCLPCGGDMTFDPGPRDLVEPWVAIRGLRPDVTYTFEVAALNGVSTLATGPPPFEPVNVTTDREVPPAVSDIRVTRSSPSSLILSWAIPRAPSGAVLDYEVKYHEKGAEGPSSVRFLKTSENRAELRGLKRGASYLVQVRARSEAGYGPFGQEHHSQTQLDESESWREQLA

Row | Binder | fold more EphB4 bound compared to other EphB family receptors [1] | Kd [2]
1 | DALNDWLLFRPWGSGSK (also: biotinylated, position not given here) [DAL synthetic peptide (biotinylated)] | 4 fold | –
2 | SWLAYPGAVSYRGSGSK (also: biotinylated, position not given here) [SWL peptide (synthetic, biotinylated)] | – | 678 nM
